Reference: patent US20220119505A1

B1: F45::(GGGGS)3::F45 homodivalent protein construct (VHH)
chain: QVQLQESGGGLVQPGGSLRLSCLVSGGTFSWYAMGWFRQAPGKEREFVATVSRGGGSSYYADSVKGRFTISRDNAKNTVYLQMNSLKPEDTAVYYCAAGRGAPSDTGRPDEYDYWGQGTQVTVSSGGGGSGGGGSGGGGSQVQLQESGGGLVQPGGSLRLSCLVSGGTFSWYAMGWFRQAPGKEREFVATVSRGGGSSYYADSVKGRFTISRDNAKNTVYLQMNSLKPEDTAVYYCAAGRGAPSDTGRPDEYDYWGQGTQVTVSS
B2: F45 single-domain antibody (VHH)
VHH: QVQLQESGGGLVQPGGSLRLSCLVSGGTFSWYAMGWFRQAPGKEREFVATVSRGGGSSYYADSVKGRFTISRDNAKNTVYLQMNSLKPEDTAVYYCAAGRGAPSDTGRPDEYDYWGQGTQVTVSS

Molecular target: Atto 488 labelled FaeG (Escherichia coli)

Binder | Hydrodynamic radius (nm)
B1 | 2.97 nm
B2 | 3.02 nm
